According to US20220348681A1, “FUSED PROTEIN OF AN ANTIBODY WHICH RECOGNIZES CANCER-CELLS AND A STREPTAVIDIN MUTANT” (THE UNIVERSITY OF TOKYO, priority 2021, published 2022):

Test: Interaction analysis between CEA-V2122-del5 and modified biotin using Biacore T200 (single-cycle kinetics, bivalent analysis mode)
Assay type: binding
Details: analyte Psyche J-iodine
Protocol: The interaction between CEA-V2122-del5 and a modified biotin was analyzed using Biacore T200. The Psyche J-iodine described in Production Example 1 was used herein as a modified biotin.
The analysis method was specifically as follows. That is, an amine-coupling kit was used, a target value was set to be 3000 RU, and the purified CEA-V2122-del5 was immobilized on Sensor Chip CM5. With regard to the concentrations of the analytes, 2.5E−09 M was two-fold diluted, and 5 types of two-fold serial dilutions including 2.5E-09 M were prepared and used in the measurement. Regarding interaction analysis, data were obtained by single-cycle kinetics analysis. Using Biacore T200 Evaluation Software, version 2.0, the obtained data were subjected to curve fitting in a bivalent analysis mode, and the following values were obtained: ka1=6.3E+03, and kd1=8.0E−06.

[1] = CEA-V2122-del5 immobilized on Sensor Chip CM5, 5 two-fold serial dilutions from 2.5E-09 M, curve fitting in bivalent analysis mode

- KD=kd1/ka1 (evaluation value from the bivalent analysis): 1.3E−09
B1: CEA-V2122-del5: fusion of scFv-type anti-CEACAM5 antibody and mutant streptavidin V2122 lacking 11 C-terminal amino acids including 6xHis tag (SEQ ID NO: 18) (protein)
chain: MKYLLPTAAAGLLLLAAQPAMAQVKLEQSGAEVVKPGASVKLSCKASGFNIKDSYMHWLRQGPGQRLEWIGWIDPENGDTEYAPKFQGKATFTTDTSANTAYLGLSSLRPEDTAVYYCNEGTPTGPYYFDYWGQGTLVTVSSGGGGSGGGGSGGGGSENVLTQSPSSMSVSVGDRVNIACSASSSVPYMHWLQQKPGKSPKLLIYLTSNLASGVPSRFSGSGSGTDYSLTISSVQPEDAATYYCQQRSSYPLTFGGGTKLEIKGGGGSGGGGAEAGITGTWSDQLGDTFIVTAGADGALTGTYENAVGGAESRYVLTGRYDSAPATDGSGTALGWTVAWKNNSKNAHSATTWSGQYVGGADAKINTQWLLTSGTTNANAWKSTLVGHDTFTKVK
- ka1 [1]: 6.3E+03
- kd1 [1]: 8.0E−06
